Experimental data reported in patent publication US12692294B2, “Engineered NRG-1 variants with improved selectivity toward ErbB4 but not against ErbB3” (Amgen Inc., priority 2021, dated 2026).
pEC50: −log10 of the molar value. Several values for one entry are separate records, joined by “and”; a condition that tells them apart may be missing. Equal values may be shown once.

Tests used:
ErbB4 = target: T1, ErbB4 (Rattus norvegicus, UniProt Q62956); experiment: In vitro phosphorylation of Akt in neonatal rat cardiomyocytes; assay type: cell-based; details: for pEC50: Akt (Serine 473) phosphorylation, neonatal rat cardiomyocytes, 15 minutes treatment, read-out: Cardiomyocyte (CM) (ErbB4) Avg EC50; for Selectivity SC/CM: ratio of EC50s Schwann cells/cardiomyocytes; for CM % Agonism AVG: top value of the Akt phosphorylation data points in cardiomyocytes, wild-type control 100
T1 construct: forming the ErbB2/ErbB4 complex in cardiomyocytes and the ErbB2/ErbB3 complex in Schwann cells; endogenous in cells; host or cells: primary neonatal rat cardiomyocytes (Sprague Dawley pups, 0 to 4 days old)
T1 sequence (Q62956 26-1308): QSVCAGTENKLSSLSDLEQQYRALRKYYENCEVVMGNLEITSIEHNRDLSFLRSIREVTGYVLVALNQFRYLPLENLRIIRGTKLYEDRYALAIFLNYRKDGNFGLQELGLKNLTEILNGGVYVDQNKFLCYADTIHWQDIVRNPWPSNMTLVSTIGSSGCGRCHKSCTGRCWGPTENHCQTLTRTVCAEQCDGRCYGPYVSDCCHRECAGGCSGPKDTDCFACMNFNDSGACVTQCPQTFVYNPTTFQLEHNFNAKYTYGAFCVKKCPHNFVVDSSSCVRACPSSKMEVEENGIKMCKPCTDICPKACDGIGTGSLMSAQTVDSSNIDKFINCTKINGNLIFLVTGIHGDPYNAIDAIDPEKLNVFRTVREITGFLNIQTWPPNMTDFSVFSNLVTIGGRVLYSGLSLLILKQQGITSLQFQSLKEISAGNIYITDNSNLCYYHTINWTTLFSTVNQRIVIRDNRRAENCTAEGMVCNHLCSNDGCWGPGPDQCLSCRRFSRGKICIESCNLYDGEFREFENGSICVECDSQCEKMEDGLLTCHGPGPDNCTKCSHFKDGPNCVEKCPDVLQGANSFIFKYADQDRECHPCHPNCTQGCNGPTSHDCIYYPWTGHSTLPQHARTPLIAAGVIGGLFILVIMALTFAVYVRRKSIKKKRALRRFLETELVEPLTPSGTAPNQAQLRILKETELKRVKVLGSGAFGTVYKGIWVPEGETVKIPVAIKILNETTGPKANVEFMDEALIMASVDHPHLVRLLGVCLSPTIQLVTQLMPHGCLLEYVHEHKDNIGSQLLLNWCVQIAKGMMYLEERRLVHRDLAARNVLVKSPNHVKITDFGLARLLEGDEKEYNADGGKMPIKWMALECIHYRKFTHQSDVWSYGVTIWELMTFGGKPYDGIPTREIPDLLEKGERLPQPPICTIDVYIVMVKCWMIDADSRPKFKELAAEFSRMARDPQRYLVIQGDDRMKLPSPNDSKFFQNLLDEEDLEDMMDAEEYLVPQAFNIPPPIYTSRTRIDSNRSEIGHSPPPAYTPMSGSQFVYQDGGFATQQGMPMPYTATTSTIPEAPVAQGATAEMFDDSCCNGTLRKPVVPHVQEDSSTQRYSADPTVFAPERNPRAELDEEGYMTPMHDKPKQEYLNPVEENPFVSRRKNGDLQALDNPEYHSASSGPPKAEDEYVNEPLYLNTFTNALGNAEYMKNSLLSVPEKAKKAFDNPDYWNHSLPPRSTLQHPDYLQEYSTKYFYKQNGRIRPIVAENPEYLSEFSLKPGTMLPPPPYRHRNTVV
T1 sequence (P06494 23-1257 partner): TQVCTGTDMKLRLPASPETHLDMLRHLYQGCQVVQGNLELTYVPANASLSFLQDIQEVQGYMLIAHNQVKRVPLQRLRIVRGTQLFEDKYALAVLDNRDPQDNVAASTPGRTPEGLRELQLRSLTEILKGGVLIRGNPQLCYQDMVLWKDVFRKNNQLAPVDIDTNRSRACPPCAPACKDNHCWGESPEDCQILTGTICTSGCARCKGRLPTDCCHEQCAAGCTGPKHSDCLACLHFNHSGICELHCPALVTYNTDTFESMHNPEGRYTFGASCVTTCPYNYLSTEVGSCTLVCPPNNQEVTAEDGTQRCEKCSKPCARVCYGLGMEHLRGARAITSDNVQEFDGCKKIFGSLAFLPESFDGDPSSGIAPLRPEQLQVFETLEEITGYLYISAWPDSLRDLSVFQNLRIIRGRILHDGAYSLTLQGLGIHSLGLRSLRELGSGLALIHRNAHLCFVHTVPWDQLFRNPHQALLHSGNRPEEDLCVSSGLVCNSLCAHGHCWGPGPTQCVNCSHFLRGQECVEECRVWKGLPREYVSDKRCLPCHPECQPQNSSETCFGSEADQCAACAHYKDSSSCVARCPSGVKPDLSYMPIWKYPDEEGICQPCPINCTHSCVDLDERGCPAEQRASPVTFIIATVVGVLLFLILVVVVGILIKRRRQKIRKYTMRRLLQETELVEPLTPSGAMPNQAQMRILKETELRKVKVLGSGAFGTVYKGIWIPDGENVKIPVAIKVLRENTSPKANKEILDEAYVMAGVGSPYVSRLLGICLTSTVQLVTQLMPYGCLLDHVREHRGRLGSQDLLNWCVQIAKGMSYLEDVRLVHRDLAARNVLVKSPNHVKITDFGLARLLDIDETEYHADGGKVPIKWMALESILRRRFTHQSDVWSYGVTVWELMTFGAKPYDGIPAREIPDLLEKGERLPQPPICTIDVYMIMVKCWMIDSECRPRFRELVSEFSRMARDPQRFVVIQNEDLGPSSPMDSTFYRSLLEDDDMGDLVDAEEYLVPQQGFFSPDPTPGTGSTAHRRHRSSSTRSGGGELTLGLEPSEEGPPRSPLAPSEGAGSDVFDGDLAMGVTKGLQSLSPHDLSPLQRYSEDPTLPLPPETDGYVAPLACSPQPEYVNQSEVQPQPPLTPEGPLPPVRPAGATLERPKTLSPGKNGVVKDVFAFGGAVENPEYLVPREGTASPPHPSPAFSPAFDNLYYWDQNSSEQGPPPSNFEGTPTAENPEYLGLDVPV
Method: (§1) In Vitro Phosphorylation of Akt in Neonatal Rat Cardiomyocytes and Rat Schwann Cells by Neuregulin Variants
(§2) Specificity of neuregulin variants towards cardiomyocytes (ErbB4) versus Schwann cells (ErbB3) was tested by measuring Akt activity generated by formation of the ErbB2/ErbB4 and ErbB2/ErbB3 complexes. Upon activation by neuregulin, the ErbB4 and ErbB3 receptors dimerize preferentially with the ErbB2 co-receptor, forming the ErbB2/ErbB4 complex in cardiomyocytes and the ErbB2/ErbB3 complex in Schwann cells, both of which signal through the Akt pathway. Neonatal rat cardiomyocytes were isolated from hearts of Sprague Dawley rat pups at 0 to 4 days old according to manufacturer's protocol using the Neomyt kit and plated on Surecoat plates in NS media containing serum (all from Cellultron Life Technologies, Baltimore, MD). Rat Schwann cells were plated in Poly-D-Lysine coated plates with Dulbecco's modified Eagle's media (DMEM) supplemented with fetal bovine serum (Thermo Fisher) and forskolin (Millipore Sigma).
(§3) After a 24-hour incubation in a humidified incubator maintained at 37° C. and 5% CO2, cardiomyocytes and Schwann cells were washed with serum free media and incubated an additional 16 hours in DMEM supplemented with bovine serum albumin (Sigma). Both cell lines were then treated with titrations of the neuregulin variant molecules for 15 minutes, upon which cells were lysed in lysis buffer (Meso Scale Discovery (MSD)). For detection of Akt phosphorylation, lysates were added to the Multi-Spot 96-Well 4-Spot Phospho (Serine 473)/Total Akt plates (MSD), incubated according to the manufacturer's protocol and read in the SECTOR Imager 6000 (MSD). For both cell assays, the percent phosphorylation of Akt was calculated by multiplying the phospho Akt signal by 2, then dividing by the phospho Akt signal added to the total Akt signal and then multiplying by 100. The phosphorylation of Akt data points were fitted using a log (agonist) versus response, variable slope (4 parameters) analysis in GraphPad Prism to generate EC50 curves. The CM % agonism reflect the top value of the data points.

ErbB3 = target: T2, ErbB3 (Rattus norvegicus, UniProt Q62799); experiment: In vitro phosphorylation of Akt in rat Schwann cells; assay type: cell-based; details: Akt (Serine 473) phosphorylation, 15 minutes treatment, read-out: Schwann cells (SC) (ErbB3) Avg EC50
T2 construct: forming the ErbB2/ErbB4 complex in cardiomyocytes and the ErbB2/ErbB3 complex in Schwann cells; endogenous in cells; host or cells: rat Schwann cells
T2 sequence (Q62799 20-1339): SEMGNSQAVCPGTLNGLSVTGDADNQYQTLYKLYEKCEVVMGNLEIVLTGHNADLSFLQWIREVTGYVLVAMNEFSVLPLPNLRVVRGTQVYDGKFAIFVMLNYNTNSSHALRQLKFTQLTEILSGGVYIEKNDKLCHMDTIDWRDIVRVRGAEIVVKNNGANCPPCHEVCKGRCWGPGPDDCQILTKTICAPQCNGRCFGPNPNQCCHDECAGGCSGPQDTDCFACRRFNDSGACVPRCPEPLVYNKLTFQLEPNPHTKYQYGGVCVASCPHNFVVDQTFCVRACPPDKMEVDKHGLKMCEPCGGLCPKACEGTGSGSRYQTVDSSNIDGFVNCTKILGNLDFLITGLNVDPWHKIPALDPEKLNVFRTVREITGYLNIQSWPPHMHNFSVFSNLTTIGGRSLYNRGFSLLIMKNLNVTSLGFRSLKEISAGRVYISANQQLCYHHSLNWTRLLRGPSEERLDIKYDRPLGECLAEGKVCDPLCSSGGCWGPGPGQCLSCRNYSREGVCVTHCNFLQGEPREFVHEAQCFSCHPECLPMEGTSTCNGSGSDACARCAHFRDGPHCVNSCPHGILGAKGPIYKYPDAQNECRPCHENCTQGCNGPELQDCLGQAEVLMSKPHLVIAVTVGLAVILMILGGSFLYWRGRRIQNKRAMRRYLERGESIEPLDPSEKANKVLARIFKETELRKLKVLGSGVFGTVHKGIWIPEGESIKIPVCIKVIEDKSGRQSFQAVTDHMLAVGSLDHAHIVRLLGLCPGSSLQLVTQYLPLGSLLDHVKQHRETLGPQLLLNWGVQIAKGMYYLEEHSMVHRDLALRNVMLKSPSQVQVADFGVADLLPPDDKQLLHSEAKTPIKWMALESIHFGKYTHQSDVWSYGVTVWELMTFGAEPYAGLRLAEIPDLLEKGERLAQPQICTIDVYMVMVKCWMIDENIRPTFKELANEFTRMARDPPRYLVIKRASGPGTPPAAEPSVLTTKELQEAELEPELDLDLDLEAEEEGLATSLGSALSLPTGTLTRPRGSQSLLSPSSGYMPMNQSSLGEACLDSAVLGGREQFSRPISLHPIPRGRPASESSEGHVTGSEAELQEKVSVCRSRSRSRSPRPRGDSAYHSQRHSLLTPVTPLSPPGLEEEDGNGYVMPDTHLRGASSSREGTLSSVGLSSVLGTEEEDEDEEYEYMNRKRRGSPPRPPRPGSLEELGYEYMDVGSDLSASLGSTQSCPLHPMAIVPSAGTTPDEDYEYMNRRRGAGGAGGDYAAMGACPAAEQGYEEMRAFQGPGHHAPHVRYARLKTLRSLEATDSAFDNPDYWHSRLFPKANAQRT
T2 sequence (P06494 23-1257 partner): as the sequence (P06494 23-1257 partner) above
Method: as §1, §2, §3

pEC50 (ErbB4) | Selectivity SC/CM (ErbB4) | CM % Agonism AVG (ErbB4) | pEC50 (ErbB3) | Substance
9.72 | >10000 | 76% | 5.00 | huNRG1(S177-F229)(NRGE1C) (E47S_D48T_F49R_M50V) huIgG1z SELF2 Fc: Fc fusion of NRG1 variant SEQ ID NO:123
9.82 | 62.2 | 88.5% | 8.03 | huNRG1(S177-F229)(NRGE1D) (E47K_D48L_F49D_M50I) huIgG1z SELF2 Fc: Fc fusion of NRG1 variant SEQ ID NO:127
9.43 | >10000 | 86.3% | 5.00 | huNRG1(S177-F229)(NRGE1D) (E47S_D48S_F49E_M50L) huIgG1z SELF2 Fc: Fc fusion of NRG1 variant SEQ ID NO:128
9.41 | >10000 | 79.5% | 5.00 | huNRG1(S177-F229)(NRGE1D) (E47T_D48S_F49L_M50L) hnIgG1z SELF2 Fc: Fc fusion of NRG1 variant SEQ ID NO:129
9.47 | 0.3 | – | – | huNRG1(S177-F229)(wt)::3x(G4Q)::huFcSEFL2 (Pb): Fc fusion of wild-type NRG1 fragment S177-F229 [reference compound]
9.68 | 0.3 | – | 10.15 | huNRG1(S177-Q237)(wt)::3x(G4Q)::huFcSEFL2 (Pb): Fc fusion of wild-type NRG1 fragment S177-Q237 [reference compound]
– | 0.4 and 0.3 | Full | 9.95 and 9.82 | huNRG1(S177-Q237)(wt)::GG::huFcSEFL2 (Pb): Fc fusion of wild-type NRG1 fragment S177-Q237 [reference compound]
10.08 | 0.2643 | 92.6% | 10.65 | huNRG1(S177-S228)(wt)((G4E)2:G4)::huFcSEFL2 (Pb): Fc fusion of wild-type NRG1 fragment S177-S228 [reference compound]
